Measurements as given in patent US20150299313A1 (Chugai, published 2015).

Assays:
[1] = biological target: T1, soluble human IL-6 receptor (human, UniProt P08887 20-357); assay: SPR (Biacore T100), antibody captured on anti-human IgG F(ab')2, human IL-6 receptor as analyte, 37 C, pH 7.4
T1 construct: also called hsIL-6R; hIL6R
T1 sequence: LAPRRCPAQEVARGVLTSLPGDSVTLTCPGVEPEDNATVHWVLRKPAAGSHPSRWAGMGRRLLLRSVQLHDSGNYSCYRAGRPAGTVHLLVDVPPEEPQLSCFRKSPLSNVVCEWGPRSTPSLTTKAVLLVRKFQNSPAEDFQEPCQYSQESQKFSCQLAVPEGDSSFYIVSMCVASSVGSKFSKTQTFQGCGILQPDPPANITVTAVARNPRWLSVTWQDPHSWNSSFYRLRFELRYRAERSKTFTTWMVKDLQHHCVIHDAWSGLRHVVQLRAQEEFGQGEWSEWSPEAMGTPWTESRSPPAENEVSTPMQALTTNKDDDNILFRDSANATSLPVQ
Procedure: (§1) GL1-IgG1-SA (−) and GL5-IgG1-SA (−) were treated with sialidase and then used as measurement samples. An appropriate amount of Anti-Human IgG (γ-chain specific), F(ab′)2 fragment antibody produced in goat (Sigma) was immobilized onto Sensor chip CM5 (GE Healthcare) in accordance with the amine coupling method and then a target antibody was allowed to capture. Subsequently, a human IL-6 receptor dilution solution and a running buffer (a blank) were injected at a flow rate of 20 μL/min for 3 minutes to allow the human IL-6 receptor to interact with the antibody captured on the sensor chip. Either one of two types of running buffers pH 7.4 and pH 6.0 containing 10 mmol/L ACES, 150 mmol/L NaCl, and 0.05% (w/v) Tween20 was used and each buffer was employed for dilution of IL-6R. Thereafter, a running buffer was fed at a flow rate 20 μL/min for 5 minutes. After dissociation of the IL-6 receptor was observed, 10 mmol/L Glycine-HCl (pH 1.5) was injected at a flow rate of 30 μL/min for 5 seconds. This procedure was repeated five times to regenerate the sensor chip. All samples were measured at 37° C. From the sensorgram obtained by measurement, an association constant, ka (1/Ms) and a dissociation constant kd (1/s) as kinetics parameters were computationally obtained. From the values, KD (M) of each antibody to a human IL-6 receptor was calculated. Individual parameters were calculated by use of Biacore T100 Evaluation Software (GE Healthcare).

[2] = biological target: T1, soluble human IL-6 receptor; assay: SPR (Biacore T100), antibody captured on anti-human IgG F(ab')2, human IL-6 receptor as analyte, 37 C, pH 6.0
Procedure: as §1

[3] = biological target: T1, soluble human IL-6 receptor; assay: SPR (Biacore T100), antibody captured on protein A, human IL-6 receptor as analyte, 37 C, pH 7.4
Procedure: (§2) Kinetic analysis on the antigen-antibody reaction between each of GL1-IgG1-SA (−), GL1-M111-SA (−), GL2-M111-SA (−), GL3-M111-SA (−), GL4-M111-SA (−), GL5-M111-SA (−), GL6-M111-SA (−), GL7-M111-SA (−), GL8-M111-SA (−), GL9-M111-SA (−), GL10-M111-SA (−) and a human IL-6 receptor was performed by use of Biacore T100 (GE Healthcare). An appropriate amount of protein A (Invitrogen) was immobilized onto Sensor chip CM5 (GE Healthcare) by the amine coupling method and then a target antibody was allowed to capture. Subsequently, a human IL-6 receptor dilution solution and a running buffer (a blank) were injected at a flow rate of 20 μL/min for 3 minutes to allow the human IL-6 receptor to interact with the antibody captured on the sensor chip. Either one of two types of running buffers pH 7.4 and pH 6.0 containing 10 mmol/L ACES, 150 mmol/L NaCl, and 0.05% (w/v) Tween20 was used and each buffer was employed for dilution of IL-6R. Thereafter, the running buffer was fed at a flow rate of 20 μL/min for 5 minutes. After observation of dissociation of the IL-6 receptor, 10 mmol/L Glycine-HCl (pH 1.5) was injected at a flow rate of 30 μL/min for 30 seconds to regenerate the sensor chip. All samples were measured at 37° C. From the sensorgram obtained by measurement, an association constant, ka (1/Ms) and a dissociation constant, kd (1/s) as kinetics parameters were computationally obtained. Based on the obtained values, KD (M) of each antibody to a human IL-6 receptor was calculated. Individual parameters were calculated by use of Biacore T100 Evaluation Software (GE Healthcare).

[4] = biological target: T1, soluble human IL-6 receptor; assay: SPR (Biacore T100), antibody captured on protein A, human IL-6 receptor as analyte, 37 C, pH 6.0
Procedure: as §2

Row | Binder | Kd [1] [nM] | Kd [2] [nM] | Kd [3] [nM] | Kd [4] [nM]
1 | H54/L28-IgG1 (antibody, V domains shown, Humanized anti-IL-6 receptor antibody without pH or Ca dependency; not treated with sialidase; also called H54/L28-IgG1-SA (+); H54L28-IgG1-SA (+)) VH: QVQLQESGPGLVKPSETLSLTCAVSGYSISDDQAWSWVRQPPGEGLEWIGYISYSGITNYNPSLKGRVTISRDTSKNQFSLKLSSVTAADTAAYYCARSLARTTAMDYWGEGTLVTVSS VL: DIQMTQSPSSLSASVGDSVTITCQASQDISSYLNWYQQKPGKAPELLIYYGSELHSGVPSRFSGSGSGTDFTFTISSLEAEDAATYYCQQGNSLPYTFGQGTKVEIER | 3.9 | 3.4 | – | –
2 | GL1-IgG1-SA (+) (antibody, N-linked sugar chain at Asn 297 (EU numbering), sialic acid not removed, Same chains as GL1-IgG1-SA (-), not treated with sialidase; also called Fv4-IgG1) heavy: not shown light: DIQMTQSPSSLSASVGDSVTITCQASTDISSHLNWYQQKPGKAPELLIYYGSHLLSGVPSRFSGSGSGTDFTFTISSLEAEDAATYYCGQGNRLPYTFGQGTKVEIERTVAAPSVFIFPPSDEQLKSGTASVVCLLNNFYPREAKVQWKVDNALQSGNSQESVTEQDSKDSTYSLSSTLTLSKADYEKHKVYACEVTHQGLSSPVTKSFNRGEC | 2.1 | 66 | – | –
3 | GL4-M111-SA (-) (antibody, human IgG1, kappa, N297A, N-linked complex sugar chain at the site introduced by Gln 24 to Asn (Kabat), sialic acid removed, terminal galactose exposed, Treated with neuraminidase) heavy: not shown light: DIQMTQSPSSLSASVGDSVTITCNASTDISSHLNWYQQKPGKAPELLIYYGSHLLSGVPSRFSGSGSGTDFTFTISSLEAEDAATYYCGQGNRLPYTFGQGTKVEIERTVAAPSVFIFPPSDEQLKSGTASVVCLLNNFYPREAKVQWKVDNALQSGNSQESVTEQDSKDSTYSLSSTLTLSKADYEKHKVYACEVTHQGLSSPVTKSFNRGEC | – | – | 1.7 | 140
4 | GL2-M111-SA (-) (antibody, human IgG1, kappa, N297A, N-linked complex sugar chain at the site introduced by Ser 18 to Asn (Kabat), sialic acid removed, terminal galactose exposed, Treated with neuraminidase) heavy: not shown light: DIQMTQSPSSLSASVGDNVTITCQASTDISSHLNWYQQKPGKAPELLIYYGSHLLSGVPSRFSGSGSGTDFTFTISSLEAEDAATYYCGQGNRLPYTFGQGTKVEIERTVAAPSVFIFPPSDEQLKSGTASVVCLLNNFYPREAKVQWKVDNALQSGNSQESVTEQDSKDSTYSLSSTLTLSKADYEKHKVYACEVTHQGLSSPVTKSFNRGEC | – | – | 1.6 | 110
5 | GL8-M111-SA (-) (antibody, human IgG1, kappa, N297A, N-linked complex sugar chain at the site introduced by Thr 20 to Asn (Kabat), sialic acid removed; N-linked complex sugar chain at the site introduced by Lys 75 to Asn (Kabat), sialic acid removed, Treated with neuraminidase) heavy: not shown light: DIQMTQSPSSLSASVGDSVNITCQASTDISSHLNWYQQKPGKAPELLIYYGSHLLSGVPSRFSGSGSGTDFTFTISSLEAEDAATYYCGQGNRLPYTFGQGTKVEIERTVAAPSVFIFPPSDEQLKSGTASVVCLLNNFYPREAKVQWKVDNALQSGNSQESVTEQDSKDSTYSLSSTLTLSKADYEKHKVYACEVTHQGLSSPVTKSFNRGEC | – | – | 2 | 110
6 | GL7-M111-SA (-) (antibody, human IgG1, kappa, N297A, N-linked complex sugar chain at the site introduced by Ser 18 to Asn (Kabat), sialic acid removed; N-linked complex sugar chain at the site introduced by Lys 75 to Asn (Kabat), sialic acid removed, Treated with neuraminidase) heavy: not shown light: DIQMTQSPSSLSASVGDNVTITCQASTDISSHLNWYQQKPGKAPELLIYYGSHLLSGVPSRFSGSGSGTDFTFTISSLEAEDAATYYCGQGNRLPYTFGQGTKVEIERTVAAPSVFIFPPSDEQLKSGTASVVCLLNNFYPREAKVQWKVDNALQSGNSQESVTEQDSKDSTYSLSSTLTLSKADYEKHKVYACEVTHQGLSSPVTKSFNRGEC | – | – | 2.4 | 150
7 | GL9-M111-SA (-) (antibody, human IgG1, kappa, N297A, N-linked complex sugar chain at the site introduced by Gln 24 to Asn (Kabat), sialic acid removed; N-linked complex sugar chain at the site introduced by Lys 75 to Asn (Kabat), sialic acid removed, Treated with neuraminidase) heavy: not shown light: DIQMTQSPSSLSASVGDSVTITCNASTDISSHLNWYQQKPGKAPELLIYYGSHLLSGVPSRFSGSGSGTDFTFTISSLEAEDAATYYCGQGNRLPYTFGQGTKVEIERTVAAPSVFIFPPSDEQLKSGTASVVCLLNNFYPREAKVQWKVDNALQSGNSQESVTEQDSKDSTYSLSSTLTLSKADYEKHKVYACEVTHQGLSSPVTKSFNRGEC | – | – | 2.3 | 110
8 | GL5-IgG1-SA (-) (antibody, N-linked sugar chains at two sites of the light chain (Asn 20 and Asn 24, Kabat), sialic acid removed; N-linked sugar chain at Asn 297 (EU numbering), terminal sialic acid removed, Treated with sialidase) heavy: not shown light: DIQMTQSPSSLSASVGDNVTITCNASTDISSHLNWYQQKPGKAPELLIYYGSHLLSGVPSRFSGSGSGTDFTFTISSLEAEDAATYYCGQGNRLPYTFGQGTKVEIERTVAAPSVFIFPPSDEQLKSGTASVVCLLNNFYPREAKVQWKVDNALQSGNSQESVTEQDSKDSTYSLSSTLTLSKADYEKHKVYACEVTHQGLSSPVTKSFNRGEC | 1.9 | 52 | – | –
9 | GL3-M111-SA (-) (antibody, human IgG1, kappa, N297A, N-linked complex sugar chain at the site introduced by Thr 20 to Asn (Kabat), sialic acid removed, terminal galactose exposed, Treated with neuraminidase) heavy: not shown light: DIQMTQSPSSLSASVGDSVNITCQASTDISSHLNWYQQKPGKAPELLIYYGSHLLSGVPSRFSGSGSGTDFTFTISSLEAEDAATYYCGQGNRLPYTFGQGTKVEIERTVAAPSVFIFPPSDEQLKSGTASVVCLLNNFYPREAKVQWKVDNALQSGNSQESVTEQDSKDSTYSLSSTLTLSKADYEKHKVYACEVTHQGLSSPVTKSFNRGEC | – | – | 1.3 | 80
10 | GL6-M111-SA (-) (antibody, human IgG1, kappa, N297A, N-linked complex sugar chain at the site introduced by Lys 75 to Asn (Kabat), sialic acid removed, terminal galactose exposed, Treated with neuraminidase) heavy: not shown light: DIQMTQSPSSLSASVGDSVTITCQASTDISSHLNWYQQKPGKAPELLIYYGSHLLSGVPSRFSGSGSGTDFTFTISSLEAEDAATYYCGQGNRLPYTFGQGTKVEIERTVAAPSVFIFPPSDEQLKSGTASVVCLLNNFYPREAKVQWKVDNALQSGNSQESVTEQDSKDSTYSLSSTLTLSKADYEKHKVYACEVTHQGLSSPVTKSFNRGEC | – | – | 2.6 | 110
11 | GL1-IgG1-SA (-) (antibody, N-linked sugar chain at Asn 297 (EU numbering), terminal sialic acid removed, also called GL1-IgG1 treated with neuraminidase/sialidase; Fv4-IgG1) heavy: not shown light: DIQMTQSPSSLSASVGDSVTITCQASTDISSHLNWYQQKPGKAPELLIYYGSHLLSGVPSRFSGSGSGTDFTFTISSLEAEDAATYYCGQGNRLPYTFGQGTKVEIERTVAAPSVFIFPPSDEQLKSGTASVVCLLNNFYPREAKVQWKVDNALQSGNSQESVTEQDSKDSTYSLSSTLTLSKADYEKHKVYACEVTHQGLSSPVTKSFNRGEC | 2.2 | 61 | 1.8 | 150
12 | GL10-M111-SA (-) (antibody, human IgG1, kappa, N297A, two N-linked complex sugar chains at the sites introduced by Thr 20 to Asn and Gln 24 to Asn (Kabat), sialic acid removed; N-linked complex sugar chain at the site introduced by Lys 75 to Asn (Kabat), sialic acid removed, Treated with neuraminidase) heavy: not shown light: DIQMTQSPSSLSASVGDNVTITCNASTDISSHLNWYQQKPGKAPELLIYYGSHLLSGVPSRFSGSGSGTDFTFTISSLEAEDAATYYCGQGNRLPYTFGQGTKVEIERTVAAPSVFIFPPSDEQLKSGTASVVCLLNNFYPREAKVQWKVDNALQSGNSQESVTEQDSKDSTYSLSSTLTLSKADYEKHKVYACEVTHQGLSSPVTKSFNRGEC | – | – | 2.4 | 130
